Source: PMC6118392, “VapC proteins from Mycobacterium tuberculosis share ribonuclease sequence specificity but differ in regulation and toxicity” (PLoS ONE, 2018)

These binders were tested against T1, VapB29;VapC29 (Mycobacterium tuberculosis …, UniProt P9WJ37;P9WF79 1-75;1-133, |) (assay: EMSA). Settings: protein: recombinant;recombinant; tags: ;C-terminal His; label: 3' DIG-ddUTP; blunt.
T1 sequence 1: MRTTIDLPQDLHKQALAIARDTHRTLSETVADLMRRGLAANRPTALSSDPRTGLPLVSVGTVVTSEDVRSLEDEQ
T1 sequence 2: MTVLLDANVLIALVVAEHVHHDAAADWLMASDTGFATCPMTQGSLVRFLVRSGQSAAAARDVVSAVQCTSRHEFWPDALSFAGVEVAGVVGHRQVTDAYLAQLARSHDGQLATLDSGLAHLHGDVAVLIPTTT

Row | Binder | binding result
1 | Oligo 5 Bind 5 (Mut. 5) (dsDNA) DNA 1: GGTGAGCGTCGGCGCGCGCATCACGATGCAAAAAAATTAGGATGAGGCGG DNA 2: CCGCCTCATCCTAATTTTTTTGCATCGTGATGCGCGCGCCGACGCTCACC | no binding
2 | Oligo 5 Bind 3 (Mut. 3) (dsDNA) DNA 1: GGTGAGCGTCGGCGCGAAAAAAACGATGCAGCGATGTTAGGATGAGGCGG DNA 2: CCGCCTCATCCTAACATCGCTGCATCGTTTTTTTCGCGCCGACGCTCACC | no binding

Molecular target: the molecule itself
Test: SEC
Settings: not given

Row | Binder | stoichiometry N
3 | VapBC39 heterodimer (complex, VapB39 antitoxin of Mycobacterium tuberculosis, gene Rv2530a; as m9; VapC39 toxin of Mycobacterium tuberculosis, gene Rv2530c; as m10; also called Rv2530a/Rv2530c) chain 1: MRTTLQIDDDVLEDARSIARSEGKSVGAVISELARRSLRPVGIVEVDGFPVFDVPPDAPTVTSEDVVRALEDDV chain 2: MTALLDVNVLIALGWPNHVHHAAAQRWFTQFSSNGWATTPITEAGYVRISSNRSVMQVSTTPAIAIAQLAAMTSLAGHTFWPDDVPLIVGSAGDRDAVSNHRRVTDCHLIALAARYGGRLVTFDAALADSASAGLVEVL | 4.9 VapBC heterodimers per complex
4 | VapBC19 heterodimer (complex, VapB19 antitoxin of Mycobacterium tuberculosis, gene Rv2547; as m3; VapC19 toxin of Mycobacterium tuberculosis, gene Rv2548; as m4; also called Rv2547/Rv2548) chain 1: MRTQVTLGKEELELLDRAAKASGASRSELIRRAIHRAYGTGSKQERLAALDHSRGSWRGRDFTGTEYVDAIRGDLNERLARLGLA chain 2: MKLIDTTIAVDHLRGEPAAAVLLAELINNGEEIAASELVRFELLAGVRESELAALEAFFSAVVWTLVTEDIARIGGRLARRYRSSHRGIDDVDYLIAATAIVVDADLLTTNVRHFPMFPDLQPPY | 3.61 VapBC heterodimers per complex
5 | VapBC1 heterodimer (complex, VapB1 antitoxin of Mycobacterium tuberculosis, gene Rv0064a; as m1; VapC1 toxin of Mycobacterium tuberculosis, gene Rv0065; as m2; also called Rv0064a/Rv0065) chain 1: MATIQVRDLPEDVAETYRRRATAAGQSLQTYMRTKLIEGVRGRDKAEAIEILEQALASTASPGISRETIEASRRELRGG chain 2: MDECVVDAAAVVDALAGKGASAIVLRGLLKESISNAPHLLDAEVGHALRRAVLSDEISEEQARAALDALPYLIDNRYPHSPRLIEYTWQLRHNVTFYDALYVALATALDVPLLTGDSRLAAAPGLPCEIKLVR | 5.6 VapBC heterodimers per complex
6 | VapBC29 heterodimer (complex, VapB29 antitoxin of Mycobacterium tuberculosis, gene Rv0616a; as m7; VapC29 toxin of Mycobacterium tuberculosis, gene Rv0617; as m8; also called Rv0616a/Rv0617) chain 1: MRTTIDLPQDLHKQALAIARDTHRTLSETVADLMRRGLAANRPTALSSDPRTGLPLVSVGTVVTSEDVRSLEDEQ chain 2: MTVLLDANVLIALVVAEHVHHDAAADWLMASDTGFATCPMTQGSLVRFLVRSGQSAAAARDVVSAVQCTSRHEFWPDALSFAGVEVAGVVGHRQVTDAYLAQLARSHDGQLATLDSGLAHLHGDVAVLIPTTT | 5 VapBC heterodimers per complex
